Assay results reported in article PMC7054857 (The Journal of General Physiology, 2020).
Positions count from the first letter of the chain named.

Assays:
Assay in all cases: FRET or BRET
ASIC3(Q269G)-CER = molecular target: T1, ASIC3(Q269G)-CER (rat, UniProt O35240 1-533, Q269G)
T1 sequence (looked up): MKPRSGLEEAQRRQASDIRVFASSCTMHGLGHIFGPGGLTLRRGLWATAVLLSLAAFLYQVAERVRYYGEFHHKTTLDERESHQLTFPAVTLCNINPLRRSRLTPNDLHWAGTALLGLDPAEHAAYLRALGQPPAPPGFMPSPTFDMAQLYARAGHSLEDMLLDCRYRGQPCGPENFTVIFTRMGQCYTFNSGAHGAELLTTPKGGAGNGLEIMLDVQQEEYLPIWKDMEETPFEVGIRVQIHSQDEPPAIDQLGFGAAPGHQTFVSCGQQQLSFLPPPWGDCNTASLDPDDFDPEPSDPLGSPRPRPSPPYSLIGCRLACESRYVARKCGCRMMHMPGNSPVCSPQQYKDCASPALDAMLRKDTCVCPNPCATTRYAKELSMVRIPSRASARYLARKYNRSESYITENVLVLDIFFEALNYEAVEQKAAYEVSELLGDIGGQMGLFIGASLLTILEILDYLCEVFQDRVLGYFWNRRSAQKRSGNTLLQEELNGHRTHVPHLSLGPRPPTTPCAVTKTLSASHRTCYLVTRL

[1] = molecular target: T2, ASIC3-CER (rat acid-sensing ion channel 3 with a C-terminal mCerulean3) (rat, UniProt O35240 1-533)
T2 sequence (looked up): T1 sequence (looked up) with G269Q

ASIC3(44–71)1a-CER = molecular target: T3, ASIC3(44–71)1a-CER (rat, UniProt O35240 1-43; P55926 44-71; O35240 72-533)
T3 chain (looked up): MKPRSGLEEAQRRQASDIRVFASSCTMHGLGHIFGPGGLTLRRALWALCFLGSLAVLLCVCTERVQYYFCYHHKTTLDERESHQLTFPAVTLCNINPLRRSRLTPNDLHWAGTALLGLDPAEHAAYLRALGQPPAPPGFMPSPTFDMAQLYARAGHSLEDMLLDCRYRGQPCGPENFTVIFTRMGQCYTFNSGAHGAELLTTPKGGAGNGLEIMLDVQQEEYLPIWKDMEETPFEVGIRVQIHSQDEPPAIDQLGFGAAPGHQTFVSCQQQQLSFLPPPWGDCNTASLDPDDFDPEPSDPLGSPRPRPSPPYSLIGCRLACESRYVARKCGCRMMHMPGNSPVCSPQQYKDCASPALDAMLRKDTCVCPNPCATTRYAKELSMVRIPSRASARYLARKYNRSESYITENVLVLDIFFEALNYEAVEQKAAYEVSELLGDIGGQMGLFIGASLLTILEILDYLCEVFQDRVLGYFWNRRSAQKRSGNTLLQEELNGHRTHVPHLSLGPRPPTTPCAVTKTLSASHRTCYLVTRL

[2] = molecular target: ASIC3(506–519)1a-CER (rat) (UniProt O35240)
[3] = molecular target: ASIC3(1–43,466–505)1a-CER (rat) (UniProt O35240)
[4] = molecular target: ASIC3(466–505)1a-CER (rat) (UniProt O35240)

B1: STOM-YFP (mouse stomatin with a C-terminal EYFP) (natural protein, UniProt P54116 1-284, looked up)
chain: MSDKRQSSHVQSQRIPESFRENSKTELGACGWILVAASFFFVIITFPISIWICIKIVKEYERVIIFRLGRILQGGAKGPGLFFILPCTDSLIKVDMRTISFDIPPQEVLTKDSVTISVDGVVYYRVQNATLAVANITNADSATRLLAQTTLRNALGTKNLSQILSDREEIAHHMQSTLDDATDDWGIKVERVEIKDVKLPVQLQRAMAAEAEAAREARAKVIAAEGEMNASRALKEASMVITESPAALQLRYLQTLTTIAAEKNSTIVFPLPVDMLQGIMGSNH
For B1, the FRET efficiency (ASIC3(Q269G)-CER) was 10.3%, the FRET efficiency [1] was 12.5% and the FRET efficiency (ASIC3(44–71)1a-CER) was 11.8%. The FRET efficiency [2] was 9.9%, the FRET efficiency [3] was 9.3% and the FRET efficiency [4] was 13.1%.
